The target in experiment [1] is T1, GFP-RIα D/D (bovine, UniProt P00514 1-109).
T1 construct: range 1-109; His tag cleaved with thrombin; also called dimerization/docking (D/D) domain of bovine RIα (residues 1-109) fused to GFP; not shown: green fluorescent protein (GFP)
In words: SPOT peptide array, anti-GFP detection.

The target of experiment [2] is T2, GFP-RIIα D/D (mouse, UniProt P12367 1-46).
T2 construct: range 1-46; His tag cleaved with thrombin; also called GFP-RII D/D; D/D domain of mouse RIIα (residues 1-46) fused to GFP; not shown: green fluorescent protein (GFP)
Kind of experiment: SPOT peptide array, anti-GFP detection.

Experiment [3] concerns the target T1, GFP-RIα D/D. In words: SPOT peptide array, anti-GFP detection. The procedure: (§1) In addition, the minimal sequence required for regulatory subunit binding was also assessed using N- and C-terminal truncations of the 27-residue human D-AKAP2 sequence. N-terminal or C-terminal truncated peptides were synthesized using SPOT synthesis on cellulose membrane as described herein. Binding was evaluated by incubating each membrane with GFP-RIα D/D and GFP-RIIα D/D as indicated below. The dimerization/docking (D/D) domain of bovine RIα (residues 1-109) and mouse RIIα (residues 1-46), fused to green fluorescence protein (GFP) were subcloned into a pRSET expression vector (Invitrogen, Carlsbad, Calif.) downstream of a histidine tag. The proteins, GFP-RIα D/D and GFP-RIIα D/D were expressed in E. coli BL21 (DE3) and purified using Talon (Clontech, Palo Alto, Calif.) resin. The His tag was cleaved using thrombin and the protein further purified using an S75-Sephadex (16/60) gel filtration column (Pharmacia, Peapack, N.J.) in 50 mM MES pH 5.8, 50 mM NaCl, 2 mM EDTA, 2 mM EGTA, 2 mM DTT. The protein was stored at 4° C.
(§2) Bound protein was detected using a primary antibody against GFP and enzyme conjugated secondary antibody for amplification of signal. The membrane was then analyzed by chemiluminescence.
This is another data set of the same source.

In experiment [4] the target is T2, GFP-RIIα D/D. In words: SPOT peptide array, anti-GFP detection. The procedure:
as §1, §2
The source holds these as a separate data set.

Experiment [5] deals with T3, Full-length murine RIIα (murine, UniProt P12367 2-401).
T3 construct: mature; given as full-length
Kind of experiment: fluorescence anisotropy, labeled peptide. The procedure:
(§3) Binding of each fluorescently labeled peptide to the regulatory subunits was monitored using fluorescence anisotropy. RIα and RIIα were serially diluted beginning at 1 μM and 0.1 μM, respectively, into 10 mM HEPES pH 7.4, 0.15 M NaCl, 3 mM EDTA, 0.005% Surfactant P20 (Biacore) containing either 10 nM or 1 nM of fluorescently labeled peptide for RIα and RIIα, respectively. The samples were equilibrated for at least 1 hour at room temperature and fluorescence anisotropy monitored using a Fluoromax-2 (Jobin Yvon Horiba, SPEX Division, Edison, N.J.) equipped with Glan-Thompson polarizers. The rhodamine-labeled peptide was excited at 541 nm (5-10 nm bandpass) and emission monitored at 575 nm (5-10 nm bandpass). The anisotropy was calculated directly with the Fluoromax software using the following equation: […]
(§4) Several additional truncated and substituted peptides were synthesized and their affinity to RIα and RIIα evaluated using fluorescence anisotropy (see Table 8). Binding was evaluated for both RIα and RIIα0 using fluorescence anisotropy as described herein. Substituted residues are in bold Table 8. Tryptophan at a position corresponding to residue 21 of SEQ ID NO:2 is important for discriminating against binding to the RIIα subunit.
(In fluorescence polarisation assays a small probe gives low polarisation when free and higher when bound to something large.)

Experiment [6] concerns the target T4, Full-length bovine RIα (bovine, UniProt P00514 1-380).
T4 construct: mature; given as full-length
In words: fluorescence anisotropy, labeled peptide. The procedure: as §3, §4

Like-named read-outs stand apart in the source and are kept apart here. Ends that are not written are not given here.

For orientation: Kd means the concentration at which binding is half-saturated. A high value points to a looser complex.

T2 sequence (P12367 1-46): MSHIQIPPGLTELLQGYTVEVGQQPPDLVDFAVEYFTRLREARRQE
T4 sequence (P00514 whole entry): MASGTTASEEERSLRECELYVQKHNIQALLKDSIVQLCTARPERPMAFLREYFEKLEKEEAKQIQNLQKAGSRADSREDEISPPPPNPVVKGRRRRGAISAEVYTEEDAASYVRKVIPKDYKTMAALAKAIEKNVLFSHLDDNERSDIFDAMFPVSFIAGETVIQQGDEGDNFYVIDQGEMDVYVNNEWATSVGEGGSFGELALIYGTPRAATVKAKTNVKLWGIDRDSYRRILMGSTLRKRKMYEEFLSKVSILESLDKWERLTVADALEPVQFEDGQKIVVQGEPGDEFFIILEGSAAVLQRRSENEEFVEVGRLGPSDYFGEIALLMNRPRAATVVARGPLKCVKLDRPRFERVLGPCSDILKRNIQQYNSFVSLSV
T1 sequence (P00514 1-109): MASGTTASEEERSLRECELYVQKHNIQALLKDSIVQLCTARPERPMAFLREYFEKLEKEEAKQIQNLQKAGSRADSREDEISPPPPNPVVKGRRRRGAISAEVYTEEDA
T3 sequence (P12367 2-401): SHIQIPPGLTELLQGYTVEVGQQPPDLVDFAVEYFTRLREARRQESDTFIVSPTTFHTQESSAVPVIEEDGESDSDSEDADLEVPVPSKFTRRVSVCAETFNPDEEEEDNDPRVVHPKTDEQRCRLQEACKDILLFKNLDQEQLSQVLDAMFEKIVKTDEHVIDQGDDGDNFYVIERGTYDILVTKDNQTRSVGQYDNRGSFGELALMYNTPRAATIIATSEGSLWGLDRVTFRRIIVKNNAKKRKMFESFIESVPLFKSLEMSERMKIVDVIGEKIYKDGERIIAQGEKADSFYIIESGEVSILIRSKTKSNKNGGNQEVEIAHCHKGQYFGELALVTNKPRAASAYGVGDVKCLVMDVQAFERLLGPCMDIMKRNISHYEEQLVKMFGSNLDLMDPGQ

As to EELAWKIAKMIVSDIMQQ (also: cellulose-bound) [SEQ ID NO:74 peptide], the binding result in experiment [1] and in experiment [2] was “binds” in each case.

With VQGNTDEAQEELAWKIAKMI (also: cellulose-bound) [SEQ ID NO:89 peptide], the binding result in experiment [3] and in experiment [4] was “no binding” each time.

On to VQGNTDEAQE (also: cellulose-bound) [SEQ ID NO:99 peptide], for which the binding result in experiment [3] and in experiment [4] was “no binding” in each case.

For the molecule EAQEELAWKIAKMIVSDIMQQ (also: cellulose-bound) [SEQ ID NO:71 peptide], the binding result in experiment [1] and in experiment [2] was “binds” throughout.

Consider QGNTDEAQEELAWKIAKMIVSDIMQQ (also: cellulose-bound) [SEQ ID NO:66 peptide], for which the binding result in experiment [1] and in experiment [2] was “binds” each time.

For VQGNTDEAQEELAWKIAK (also: cellulose-bound) [SEQ ID NO:91 peptide], the binding result in experiment [3] and in experiment [4] was “no binding” each time.

On to QEELAWKIAKMIVSDIMQQ (also: cellulose-bound) [SEQ ID NO:73 peptide], for which the binding result in experiment [1] and in experiment [2] was “binds” throughout.

Turning to TDEAQEELAWKIAKMIVSDIMQQ (also: cellulose-bound) [SEQ ID NO:69 peptide], the binding result in experiment [1] and in experiment [2] was “binds” each time.

With VQGNTDEAQEELA (also: cellulose-bound) [SEQ ID NO:96 peptide], the binding result in experiment [3] and in experiment [4] was “no binding” throughout.

Turning to VQGNTDEAQEELAWKIAKMIV (also: cellulose-bound) [SEQ ID NO:88 peptide], the binding result is reported as “no binding” in experiment [3] and “binds” in experiment [4].

Turning to NTDEAQEELAWKIAKMIVSDIMQQ (also: cellulose-bound) [SEQ ID NO:68 peptide], the binding result in experiment [1] and in experiment [2] was “binds” in each case.

As for LAWKIAKMIVSDIMQQ (also: cellulose-bound) [SEQ ID NO:76 peptide], the binding result in experiment [2] was “binds”.

Regarding VQGNTDEAQEE (also: cellulose-bound) [SEQ ID NO:98 peptide], the binding result in experiment [3] and in experiment [4] was “no binding” throughout.

Consider VQGNTDEAQEELAWKIAKMIVSDI (also: cellulose-bound) [SEQ ID NO:85 peptide], for which the binding result in experiment [3] and in experiment [4] was “binds” each time.

Turning to ELAWKIAKMIVSDIMQQ (also: cellulose-bound) [SEQ ID NO:75 peptide], the binding result in experiment [1] and in experiment [2] was “binds” each time.

Turning to VQGNTDEAQEELAWKIAKMIVS (also: cellulose-bound) [SEQ ID NO:87 peptide], the binding result in experiment [3] is “no binding”; in experiment [4] it was “binds”.

Regarding VQGNTDEAQEELAWKIAKMIVSDIM (also: cellulose-bound) [SEQ ID NO:84 peptide], the binding result in experiment [3] and in experiment [4] was “binds” throughout.

Take VQGNTDEAQEELAWKIAKM (also: cellulose-bound) [SEQ ID NO:90 peptide]: the binding result in experiment [3] and in experiment [4] was “no binding” in each case.

Turning to GNTDEAQEELAWKIAKMIVSDIMQQ (also: cellulose-bound) [SEQ ID NO:67 peptide], the binding result in experiment [1] and in experiment [2] was “binds” each time.

With VQGNTDEAQEELAWKI (also: cellulose-bound) [SEQ ID NO:93 peptide], the binding result in experiment [3] and in experiment [4] was “no binding” throughout.

DEAQEELAWKIAKMIVSDIMQQ (also: cellulose-bound) [SEQ ID NO:70 peptide]: the binding result in experiment [1] and in experiment [2] was “binds” throughout.

Turning to VQGNTDEAQEELAWKIAKMIWSDVMQQC(tetramethylrhodamine‑5‑maleimide)-NH2 (also called single mutant V21W) [SEQ ID NO:111 peptide (. . . QEELAWKIAKMIWSDVMQQC), rhodamine-labeled], the Kd in experiment [5] turned out to be 83 nM; in experiment [6], 120 nM.

In the case of FEELAWKIAKMIWSDVMQQC(tetramethylrhodamine‑5‑maleimide)-NH2 [PV-37 (SEQ ID NO:104) FEELAWKIAKMIWSDVMQQC, rhodamine-labeled], the results for the Kd in experiment [5] and in experiment [6] were 150 nM and 19 nM, respectively.

As for QEEFAWKIAKMIVSDVFQQC(tetramethylrhodamine‑5‑maleimide)-NH2 [PV-47 (SEQ ID NO:105) QEEFAWKIAKMIVSDVFQQC, rhodamine-labeled], the dissociation constant (Kd) in experiment [5] is 89 nM; in experiment [6], 39 nM.

In the case of AWKIAKMIVSDIMQQ (also: cellulose-bound) [SEQ ID NO:77 peptide], in experiment [2], the binding result is listed as “binds”.

For the molecule VQGNTDEAQEEL (also: cellulose-bound) [SEQ ID NO:97 peptide], the binding result in experiment [3] and in experiment [4] was “no binding” throughout.

Regarding AQEELAWKIAKMIVSDIMQQ (also: cellulose-bound) [SEQ ID NO:72 peptide], the binding result in experiment [1] and in experiment [2] was “binds” each time.

With VQGNTDEAQEELAWKIAKMIVSDIMQ (also: cellulose-bound) [SEQ ID NO:83 peptide], the binding result in experiment [3] and in experiment [4] was “binds” each time.

Regarding VQGNTDEAQEELAW (also: cellulose-bound) [SEQ ID NO:95 peptide], the binding result in experiment [3] and in experiment [4] was “no binding” throughout.

On to VQGNTDEAQEELAWK (also: cellulose-bound) [SEQ ID NO:94 peptide], for which the binding result in experiment [3] and in experiment [4] was “no binding” each time.

On to VQGNTDEAQEELAWKIAKMIVSD (also: cellulose-bound) [SEQ ID NO:86 peptide], for which the values for the binding result in experiment [3] and in experiment [4] were “no binding” and “binds”, respectively.

VQGNTDEAQEELAWKIA (also: cellulose-bound) [SEQ ID NO:92 peptide]: the binding result in experiment [3] and in experiment [4] was “no binding” in each case.
